The text below walks through data of patent US20160272707A1 (COMPUGEN, published 2016).

For assay [1], the target named is T1, VSTM5 monomer (UniProt A8MXK1 29-147, limits assumed).
T1 construct: also called monomeric VSTM5 antigen; VSTM5 antigen
T1 sequence (looked up): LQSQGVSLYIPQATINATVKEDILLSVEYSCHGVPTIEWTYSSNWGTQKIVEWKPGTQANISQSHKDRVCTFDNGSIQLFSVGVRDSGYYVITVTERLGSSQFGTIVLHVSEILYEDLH
Briefly: SPR, VSTM5 monomer binding to the IgG.

Assay [2] has as its target T1, VSTM5 monomer. The assay is described as follows: SPR, VSTM5 monomer binding to the IgG (equilibrium binding constant).
Assay [3] concerns the target T2, mouse VSTM5 (SEQ ID NO:11) expressed on HEK-293T cells (mouse, UniProt Q9D806 28-199).
T2 construct: also called mouse VSTM5 untagged
T2 sequence: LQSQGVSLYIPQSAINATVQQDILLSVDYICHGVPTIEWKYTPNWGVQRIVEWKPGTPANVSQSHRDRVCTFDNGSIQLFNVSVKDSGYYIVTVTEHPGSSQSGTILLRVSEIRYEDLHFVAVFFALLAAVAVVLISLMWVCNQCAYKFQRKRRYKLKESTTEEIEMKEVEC
The assay is described as follows: FACS titration on 293-muVSTM5 cells, panel 'Ab binding vs. mouse VSTM5'.

Assay [4] addresses T3, human VSTM5-EGFP (SEQ ID NO:133) expressed on HEK-293 cells (human).
T3 construct: Full-length human VSTM5 fused at its C-terminus to EGFP; also called VSTM5_GFP
The assay is described as follows: FACS, IgG1 at 22 nM on 293-huVSTM5 (VSTM5-EGFP) cells; grade from ratio to 293-MT control cells (400-850). As to the method: Empty vector control cells and human VSTM5 EGFP suspension 293 cells were pelleted and stained in 50 μl of the indicated concentrations of anti-VSTM5 antibodies or isotype controls in FACS buffer at 4° C. for 60 mins. Cells were washed once in FACS buffer, re-suspended in 50 μl of 1:250 dilution of biotinylated anti-human IgG (Jackson cat#109-065-097) for 30 mins at 4° C. Cells were washed in FACS buffer, re-suspended in 50 μl of 1:100 dilution of SA-PE (Jackson cat#016-110-084) for 30 mins. Cells were washed twice and re-suspended in a final volume of 100 μl of FACS buffer. Samples were read on the Intellicyt HTFC. Data was analyzed by FCS Express (DeNovo, Calif., USA), exported to Excel (Microsoft, WA, USA) and plotted in GraphPad Prism® (GraphPad Software, Inc., CA, USA).
Background: A flow cytometer gives signals particle by particle.

The target of assay [5] is T3, human VSTM5-EGFP (SEQ ID NO:133) …. The assay is described as follows: FACS titration of the human IgG1 on 293-huVSTM5 cells, 293-MT control cells as open squares; y axis MFI (anti-Human A647).
Assay [6] shares this target. Briefly: FACS, IgG1 at 22 nM on 293-huVSTM5 (VSTM5-EGFP) cells; grade from ratio to 293-MT control cells (>2000).
The target is the same in assay [7]. Briefly: FACS titration of the human IgG1 on 293-huVSTM5 cells, 293-MT control cells as open squares; y axis MFI (anti-Human A647). This is another data set of the same source.
The target is the same in assay [8]. The assay is described as follows: FACS, IgG1 at 22 nM on 293-huVSTM5 (VSTM5-EGFP) cells; grade from ratio to 293-MT control cells (50-400).
Assay [9] shares this target. Briefly: FACS, IgG1 at 22 nM on 293-huVSTM5 (VSTM5-EGFP) cells; grade from ratio to 293-MT control cells (<50).
For assay [10] the target is unchanged. Briefly: FACS, IgG1 at 22 nM on 293-huVSTM5 (VSTM5-EGFP) cells; grade from ratio to 293-MT control cells (850-2000).

As usually defined, the Kd is the equilibrium constant for the complex coming apart. Higher therefore signals a looser complex. What is called EC50 (read off the curve) is the midpoint of the concentration-response curve. The low end stands for an effect from little substance, the high end for a need for much substance.

Read-outs that look alike come from different tables or passages of the source. Some results are limits rather than exact numbers.

B1: 47-01.D05 (antibody, V domains shown)
VH: QITLKESGPTLVKPTQTLTLTCTFSGFSLSTSGVGVGWIRQPPGKALEWLALIYWDDDKRYSPSLKSRLTITKDTSKNQVVLTMTNMDPVDTATYYCAHSGSVGYALYFDYWGQGTLVTVSS
VL: QAVLTQPPSSSASPGESARLTCTLPSDINVRYYNIYWYQQKPGSPPRYLLYYQSDSHKGRGSGVPSRFSGSKDTSANTGILLISGLQSEDEADYYCMIWASNGSGVLGGGTQLTVLG
Regarding B1, the equilibrium dissociation constant (Kd) with VSTM5 monomer [1] and with VSTM5 monomer [2] was 60.7 nM each time. The binding result in assay [3] is given as “no binding”. Besides, the “ratio of 293-huVSTM5 cell binding / 293-MT control cell binding (FACS) at 22 nM mAb” value in assay [4] was 400 to 850 ratio. Also, in [5], the “EC50 (read off the curve)” value is about 2 nM.

B2: 49-01.F01 (antibody, V domains shown)
VH: EVQLVESGGGVVKPGESLRLLCTASGLSFNKYSINWVRQAPGGGLEWVSSIESGSGHIYYADSLEGRFTISRDNAKNSVTLEMNSLRVEDTALYYCVSGPEDKWLLQLYFESWGQGTLVTVSS
VL: EIVLTQSPATLSLSPGERATLSCRTSQSSPSDNLAWYQHKPGQAPRLLIYGGSNRATGIPARFSGSGSGTDFTLTISSLEPEDFAVYYCQQYGSSPLTFGGGTKVDIKR
Turning to B2, the dissociation constant Kd in the assay with VSTM5 monomer [1] and with VSTM5 monomer [2] was 2 nM throughout. For the same molecule, the binding result in assay [3] was “no binding”. The “ratio of 293-huVSTM5 cell binding / 293-MT control cell binding (FACS) at 22 nM mAb” value in [6] is over 2000 ratio. The “EC50 (read off the curve)” value in assay [7] was about 1 nM.

B3: 50-01.A04 (antibody, V domains shown)
VH: QVQLVQSGAEVKKPGESLKISCKGSGYDFNNYWIGWVRQTPEKGLEWMGIVYPGDHPGDYHIRYGPSFQGQVTISADRSITTAYLQWRNLKASDTAMYYCARLGSSKDLDYWGQGTLVTVSS
VL: EIVLTQSPATLSLSPGERATLSCRASQSVSGHLDWYQQKPGQSPRLLIYDASNRATGIPARFSGSGSGTDFSLTISSLEPEDFAVYYCQHRSNWPWTFGQGTKVEIKR
For B3, the Kd with VSTM5 monomer [1] and with VSTM5 monomer [2] was 52.8 nM throughout. The binding result in [3] was “no binding”. For the same molecule, in assay [8], the “ratio of 293-huVSTM5 cell binding / 293-MT control cell binding (FACS) at 22 nM mAb” value was in the range of 50 to 400 ratio.

B4: 49-01.D06 (antibody, V domains shown)
VH: QVQLVQSGAEVKKPGTSVKVSCKASGYTFTTYTMHWVRQAPGQRLEWMGWINTGNGNTKYSQKFQDRVTITRDTSASTAYMELSSLKFEDTAVYYCAREGVTIFGDHSYYYGMDVWGQGTTVTVSS
VL: QPVLTQSSSASASLGSSVKLTCTLSSGHSSYIIAWHQQQPGKAPRYLMKLEGSGSYNKGSGLPDRFSGSSSGADRYLTISNLQSEDEADYYCETWDGNTWVFGGGTQLTVLG
In the case of B4, in [3], the binding result is “no binding”. Besides, the “ratio of 293-huVSTM5 cell binding / 293-MT control cell binding (FACS) at 22 nM mAb” value in [6] is over 2000 ratio.

B5: 52-01.A07 (antibody, V domains shown)
VH: EVQLVESGGGLVQPGRSLRLSCAASGFTFSSYAMHWVRQAPGKGLEWVAVISYDGSNKYYADSVKGRFTISRDNSKNTLYLQMNSLRAEDTAVYYCASKRELHSFDYWGQGTLVTVSS
VL: DVVMTQSPLSLPVTPGEPASISCRSSQSLLQSNGHNYLNWYLQKPGQSPQVLIYLASNRASGVPDRFSGSGSGTDFTLKISRVEAEDVGIYYCMQGLQIPLTFGGGTKVEIKR
For B5, the binding result in assay [3] was “no binding”. In addition, the “ratio of 293-huVSTM5 cell binding / 293-MT control cell binding (FACS) at 22 nM mAb” value in [9] was under 50 ratio.

B6: 50-01.D01 (antibody, V domains shown)
VH: QVQLVESGGGVVQPGRSRRLSCAASGFAFRNYGMHWVRQAPGKGLEWVAFISQNGGKKYYADSVTGRFTVSRDNSKNTLYLQINSLTTDDTAVFYCARSGSGSWGYSDFPGPFDHWGQGSLVTVSS
VL: EIVLTQSPGTLSLSPGERATLSCRASQNIFISFLAWYQQKPGQAPRLLLYGASNRATGIPDRFSGSGSGTDFTLTISRLEPEDFAVYYCQQYGSSPLTFGGGTKVEIKR
notes: also called 50-01.001
On to B6, for which the binding result in assay [3] is listed as “no binding”. In addition, the “ratio of 293-huVSTM5 cell binding / 293-MT control cell binding (FACS) at 22 nM mAb” value in assay [4] was in the range of 400 to 850 ratio. In assay [7], the 50% effective concentration (EC50 (read off the curve)) is about 0.6 nM.

B7: 49-02.C11 (antibody, V domains shown)
VH: EVQLVESGGGLVQPGGSLRLSCAASGFTFSSYAMTWVRQAPGKGLEWVSVISGGGGTTYYADSVKGRFTISRDNSKNTLYLQMSSLRAEDTAVYYCAKGYSSGWPYYFDYWGQGTLVTVSS
VL: EIVLTQSPGTLSLSPGERATLSCRASQSGVTNFLAWYQQKPGQAPRLLIYATSSRATGIPDRFSGSASGTDFTLTITRLEPEDFAVYFCQQYASSPLTFGGGTKVEIKR
notes: also called 49-02.011
In the case of B7, the binding result in assay [3] is “no binding”. The “ratio of 293-huVSTM5 cell binding / 293-MT control cell binding (FACS) at 22 nM mAb” value in [10] was 850 to 2000 ratio.

B8: 50-01.F03 (antibody, V domains shown)
VH: EVQLVEIGGGLIQPGRSLRLSCAASGFTFSSYAMHWVRQAPGKGLEWVAVISYDGSKKYYADSVKGRFTISRDNSKNTVHLQMNSLRVEDTAVYYCALLSRPHYGLDVWGQGTTVTVSS
VL: QSVLTQPPSVSAAPGQKVTISCSGSRSNVGGNFLSWYQHVPGTPPQLLIYDNYKRPSEIPDRFSGSKSGTSATLDITGLQTGDEADYYCGTWDSSLSSWVFGGGTQLTVLG
Regarding B8, the binding result in [3] is listed as “no binding”. In addition, the “ratio of 293-huVSTM5 cell binding / 293-MT control cell binding (FACS) at 22 nM mAb” value in assay [4] lay within 400 to 850 ratio. Also, in [5], the concentration giving a half-maximal response (EC50 (read off the curve)) was about 0.7 nM.

B9: 50-01.E02 (antibody, V domains shown)
VH: QVQLVESGGGVVQPGGSLKLSCVASGFTFSAYAMNWVRLVPGKGLEWVSGISGNGYSTFYPDSVQGRFTVSRDNSKNTLFLQIDRLTGGDTAIYYCAKVQTTVITPFQNWGQGTLVTVSS
VL: EIVLTQSPGTLSLSPGERATLSCRASQNIGSNFLAWYQQKPGQAPRLLIYGASTRANGIPDRFSGSKSETDFTLTISRLEPEDFAVYYCQQYDNSPYTFGQGTKLEIKR
Consider B9, for which the binding result in assay [3] is recorded as “no binding”. In addition, the “ratio of 293-huVSTM5 cell binding / 293-MT control cell binding (FACS) at 22 nM mAb” value in [10] fell in the range of 850 to 2000 ratio. Also, in assay [7], the “EC50 (read off the curve)” value is about 1 nM.

B10: 49-01.F05 (antibody, V domains shown)
VH: QVQLQQWGAGLLKPSETLSLTCAVYGGSFSGYYWSWIRQPPGKGLEWIGEINHSGSTNYNPSLKSRVTISVDTSKNQFSLKLSSVTAADTAVYYCARGWRGGSFMDVWGQGTTVTVSS
VL: QSALTQPRSVSGSPGQSVTISCTGTSSDVGGYNYVSWYQQHPGKAPKLMIYDVIKRPSGVPDRFSGSRSGNTASLTISGLQAEDEADYYCCSYAGTHWVFGGGTKLTVLG
For B10, the Kd in the assay with VSTM5 monomer [1] and in the assay with VSTM5 monomer [2] was 190 nM in each case. Moreover, in [3], the binding result is given as “no binding”. The “ratio of 293-huVSTM5 cell binding / 293-MT control cell binding (FACS) at 22 nM mAb” value in assay [6] was over 2000 ratio.
